Laboratory results from publication PMC7904846 (2021).

B1: CD105 (natural protein)
chain: ETVHCDLQPVGPERGEVTYTTSQVSKGCVAQAPNAILEVHVLFLEFPTGPSQLELTLQASKQNGTWPREVLLVLSVNSSVFLHLQALGIPLHLAYNSSLVTFQEPPGVNTTELPSFPKTQILEWAAERGPITSAAELNDPQSILLRLGQAQGSLSFCMLEASQDMGRTLEWRPRTPALVRGCHLEGVAGHKEAHILRVLPGHSAGPRTVTVKVELSCAPGDLDAVLILQGPPYVSWLIDANHNMQIWTTGEYSFKIFPEKNIRGFKLPDTPQGLLGEARMLNASIVASFVELPLASIVSLHASSCGGRLQTSPAPIQTTPPKDTCSPELLMSLIQTKCADDAMTLVLKKELVAHLKCTITGLTFWDPSCEAEDRGDKFVLRSAYSSCGMQVSASMISNEAVVNILSSSSPQRKKVHCLNMDSLSFQLGLYLSPHFLQASNTIEPGQQSFVQVRVSPSVSEFLLQLDSCHLDLGPEGGTVELIQGRAAKGNCVSLLSPSPEGDPRFSFLLHFYTVPIPKTGTLSCTVALRPKTGSQDQEVHRTVFMRLNIISPDLSGCTSKGLVLPAVLGITFGAFLIGALLTAALWYIYSHTRSPSKREPVVAVAAPASSESSSTNHSIGSTQSTPCSTSSMA

Legend:
Assay in all cases: SPR
C59 = target: C59
C86 = target: C86
C168 = target: C168
C50 = target: C50
C68 = target: C68
CD105 [1] = target: B1
CD105 [2] = target: B1

B1
Kd (C59): 0.0659 µM
koff (C59): 0.00255 s⁻¹
Kd (C86): 0.0426 µM
koff (C86): 0.00144 s⁻¹
Kd (C168): 0.089 µM
koff (C168): 0.00391 s⁻¹
Kd (C50): 0.0162 µM
koff (C50): 0.00132 s⁻¹
Kd (C68): 0.0289 µM
koff (C68): 0.00171 s⁻¹

B2: Nb C184 (VHH)
VHH: QVQLQESGGGSVQAGGSLRLSCVASGYTVSRGYMGWFRQAPGKEREAVAAIRTGSGSTYYADSVKGRFTISQDNAKNTVYLQMNSLKHEDTGMYYCAASLWYGGNWQSWGSYNYWGQGTQVTVSS
koff (CD105 [1]): 0.00188 s⁻¹
Kd (CD105 [2]): 0.0447 µM
